Source: patent publication US12018084B2, “Anti-CXCR2 antibodies and uses thereof” (Cephalon LLC, priority 2018, dated 2024)

T1: native human CXCR2 expressed by human neutrophils (Homo sapiens, UniProt P25025)
T1 construct: native human CXCR2 expressed by human neutrophils; endogenous in cells; host or cells: human peripheral blood cells (buffy coat, PBMC-enriched fractions, anticoagulated blood): neutrophils, monocytes
T1 sequence (P25025 1-360): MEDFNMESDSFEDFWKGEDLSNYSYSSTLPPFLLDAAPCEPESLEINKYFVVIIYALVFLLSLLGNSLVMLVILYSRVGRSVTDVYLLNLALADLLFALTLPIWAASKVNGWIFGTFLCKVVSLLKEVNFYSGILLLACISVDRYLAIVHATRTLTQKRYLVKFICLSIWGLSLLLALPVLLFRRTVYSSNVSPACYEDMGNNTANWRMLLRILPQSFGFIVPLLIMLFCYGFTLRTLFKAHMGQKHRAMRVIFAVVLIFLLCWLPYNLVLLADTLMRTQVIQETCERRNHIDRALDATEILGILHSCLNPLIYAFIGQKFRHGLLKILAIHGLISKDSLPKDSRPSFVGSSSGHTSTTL

T2: Human CXCR2 (Homo sapiens, UniProt P25025)
T2 sequence (P25025 1-360): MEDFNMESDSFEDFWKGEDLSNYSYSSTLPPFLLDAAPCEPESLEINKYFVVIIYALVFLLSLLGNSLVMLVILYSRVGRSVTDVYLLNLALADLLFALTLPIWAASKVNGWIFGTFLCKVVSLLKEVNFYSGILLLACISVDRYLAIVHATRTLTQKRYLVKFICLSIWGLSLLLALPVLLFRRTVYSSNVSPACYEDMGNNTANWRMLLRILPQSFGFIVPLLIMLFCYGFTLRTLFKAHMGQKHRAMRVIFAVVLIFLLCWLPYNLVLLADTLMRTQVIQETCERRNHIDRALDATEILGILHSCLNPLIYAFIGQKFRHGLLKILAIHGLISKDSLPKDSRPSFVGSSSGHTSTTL


How the values were obtained:
[1] = tested on: hCXCR2 knock-in mice; assay: House dust mite (HDM) severe asthma model in hCXCR2 knock-in mice; format: in vivo, mouse; conditions: 10 mg/kg intraperitoneal days 5 and 12, versus vehicle
Excerpt: hCXCR2 knock-in mice were generated by use of homologous recombination in embryonic stem (ES) cells to insert the human CXCR2 into exon 1 of the mouse CXCR2 gene. The single coding exon of human CXCR2 was inserted into a vector with 5′ and 3′ arms homologous to the genomic location of the mouse coding exon of CXCR2, giving rise to a gene structure that coded for human CXCR2 but retained the mouse non-coding and regulatory elements. This vector was electroporated into C57B1/6 mouse ES cells which were incorporated into C57B1/6 mouse blastocysts and transplanted into pseudopregnant female mice. Pups were backcrossed to the parental C57B1/6 strain and offspring screened by southern blot for germline transmission of the human CXCR2 gene. Mice heterozygous for human CXCR2 were intercrossed to give a homozygous human CXCR2 line and phenotype was confirmed by analysis of binding of anti-mouse and anti-human CXCR2 antibodies by flow cytometry.
The anti-CXCR2 antibody BKO-4A8-mIgG1 (SEQ ID NOs: 113 and 114) was generated by formatting the variable heavy and light chains of BKO-4A8 onto an effector function-reduced mouse IgG1 constant region. Female hCXCR2 knock-in mice were subjected to sensitization with 50 μg HDM in complete Freund's adjuvant (CFA) administered by subcutaneous injection on day 0 and intranasal challenge with […] without CFA on day 14. Animals were treated with vehicle or BKO-4A8-mIgG1 (10 mg/kg) via intraperitoneal injection on days 5 and 12. Inflammatory responses were characterized at endpoint on day 16 by total and differential cell counts in bronchoalveolar lavage (BAL) fluid of the right lung. The left lung was fixed in 10% formalin for histopathology and mucus production assessment.
Statistical evaluation was performed using a Mann-Whitney nonparametric unpaired t test with outliers identified using Grubbs' test (Alpha=0.01) to discern statistically significant differences between the vehicle and treatment groups. All statistical analyses were performed using GraphPad Prism™ 7.01.

[2] = tested on: native cynomolgus CXCR2 expressed by cynomolgus neutrophils; assay: Flow cytometry binding to cynomolgus blood neutrophils; set-up: species or system cynomolgus monkey; conditions: FIG. 2, MFI
Description: (§1) Whole human buffy coat, PBMC enriched fractions prepared from human peripheral blood buffy coat or cynomolgus monkey whole blood was used for analysis of antibody binding activity by flow cytometry. Briefly, blood was untreated or diluted 1:1 in sterile filtered room temperature phosphate-buffered saline (PBS). 30 mL samples were layered over 15 mL Lymphoprep™ (Stem Cell Technologies, cat #07851). Peripheral blood mononuclear cells (PBMC) were enriched by room temperature centrifugation at 700 g for 30 minutes with no braking. The PBMC layer was isolated and cells washed in PBS containing 2 mM EDTA with low speed centrifugation at 200 g, to remove platelet contamination. Whole blood or PBMC enriched cell fractions were resuspended in red blood cell lysing solution (BioLegend, 420301). Viable cell counts were determined and cells resuspended at 1×10^7 cells per mL in FACS buffer (1×PBS+0.5% (w/v) BSA+2 mM EDTA pH 7.2).
Flow cytometry binding assays using whole blood or PBMC enriched preparations: Binding assays to detect CXCR2 on blood neutrophil populations using test antibodies were performed essentially as described for assays using transiently transfected Expi293F™ cells. Binding of antibodies to human CXCR2 on the surface of the neutrophils was measured using anti-CXCR2 antibody directly conjugated to the fluorophore allophycocyanin (APC). Matched isotype control antibodies were included for comparison. Cells were incubated with lineage specific antibodies and 2 μg/ml of APC conjugated anti-CXCR2 antibody or isotype control prepared in ice cold 3% BSA/PBS for a minimum of 30 minutes at 4° C. The commercial anti-CXCR2 antibody (clone 48331 (R&D Systems FAB331A)) was used as a positive control. […] The level of fluorescence on the cell surface was measured by flow cytometry. Using this method, test anti-CXCR2 antibodies were detected binding neutrophils from both human and cynomolgus monkey.

[3] = molecular target: T1, native human CXCR2 expressed by human neutrophils; assay: Flow cytometry binding to human blood cells (neutrophils, monocytes, PBMC preparations); conditions: FIG. 2, MFI
Description: as §1
Flow cytometry binding assays using whole blood or PBMC enriched preparations: Binding assays to detect CXCR2 on blood neutrophil populations using test antibodies were performed essentially as described for assays using transiently transfected Expi293F™ cells. Binding of antibodies to human CXCR2 on the surface of the neutrophils was measured using anti-CXCR2 antibody directly conjugated to the fluorophore allophycocyanin (APC). Matched isotype control antibodies were included for comparison. Cells were incubated with lineage specific antibodies and 2 μg/ml of APC conjugated anti-CXCR2 antibody or isotype control prepared in ice cold 3% BSA/PBS for a minimum of 30 minutes at 4° C. The commercial anti-CXCR2 antibody (clone 48331 (R&D Systems FAB331A)) was used as a positive control. Neutrophil populations were identified by characteristic granularity and size, and positive binding of commercially available antibodies against CD10 (Biolegend, clone H110a, catalogue number 312204). Cells were washed and fixed (BioLegend Fixation buffer, 420801) prior to analysis. The level of fluorescence on the cell surface was measured by flow cytometry. Using this method, test anti-CXCR2 antibodies were detected binding neutrophils from both human and cynomolgus monkey.
To further characterize the anti-CXCR2 antibody BKO-4A8-101c, the ability to bind CXCR2 on neutrophils was tested on anticoagulated human blood. Binding was measured using BKO-4A8-101c directly conjugated to fluorophore APC. Matched isotype control antibodies conjugated to APC were included for comparison. Cells were incubated with lineage-specific antibodies and 2 μg/mL of APC conjugated anti-CXCR2 antibody or isotype control. The level of fluorescence on the cell surface was measured by flow cytometry. […]

[4] = molecular target: T2, Human CXCR2; assay: Flow cytometry binding assay, Expi293F cells transiently transfected with human CXCR2; set-up: host or cells: Expi293F cells, vector pTT5; conditions: point variant chain co-expressed with parental other chain
Description: For each 10 mL transfection, lipid-DNA complexes were prepared by diluting 10 μg of plasmid DNA in Opti-MEM™ I Reduced Serum Medium (Cat. no. 31985-062) to a total volume of 1.0 mL. 54 μL of ExpiFectamine™ 293 Reagent was diluted in Opti-MEM™ I medium to a total volume of 1.0 mL. Transfections were carried out according to manufacturer's instructions. The cells were incubated in a 37° C. incubator with a humidified atmosphere of 8% CO2 in air on an orbital shaker rotating at 200 rpm. Approximately 18-24 hours post-transfection, the cell viability was evaluated and transfected cells harvested for use.
Harvested cells were resuspended in FACS buffer (1×PBS+0.5% (w/v) bovine serum albumin (BSA)+2 mM EDTA pH 7.2). Approximately 2×10^5 cells were added per well in a 96-well round-bottomed plate. Cells were pelleted by centrifugation at 400 g for 5 mins at 4° C. and supernatants discarded. 25 μL of each test antibody or control antibody was added to the cells and incubated for 30 minutes at 4° C. Cells were washed twice in 100 μL FACS buffer followed by centrifugation at 400 g for 5 mins at 4° C.
For detection, 50 μL of secondary antibody (Table 2) was added to relevant samples. Commercially available antibodies that bound to transfected CXCR family members were used as positive controls to ensure that the cells were expressing the receptors. Cells were washed twice in 200 μL of FACS buffer followed by centrifugation at 400 g for 5 mins at 4° C. Before sample acquisition, cells were resuspended in 100 μL of FACS buffer. Samples were acquired using the high throughput sampler on a FACSCanto™ II cytometer (Beckton-Dickinson).
Binding of BKO-4A8 and variants thereof was detected by incubation of fluorochrome-conjugate anti-human IgG light chain lambda antibody. The binding activity of antibodies tested, quantified as mean fluorescent intensity, was independent of the antibody Fc region as illustrated in FIG. 9.

Chain of native cynomolgus CXCR2 expressed by cynomolgus neutrophils (as listed by the source): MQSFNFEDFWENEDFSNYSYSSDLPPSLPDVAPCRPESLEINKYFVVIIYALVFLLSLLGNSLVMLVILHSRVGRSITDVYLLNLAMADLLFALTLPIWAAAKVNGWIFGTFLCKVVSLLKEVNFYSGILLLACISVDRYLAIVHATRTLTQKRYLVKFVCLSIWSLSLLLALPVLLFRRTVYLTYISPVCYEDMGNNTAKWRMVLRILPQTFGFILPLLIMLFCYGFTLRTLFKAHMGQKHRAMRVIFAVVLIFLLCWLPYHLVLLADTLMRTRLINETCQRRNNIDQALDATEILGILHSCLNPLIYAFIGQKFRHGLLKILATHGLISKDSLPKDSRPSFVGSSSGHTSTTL

| Molecule | binding to native cynomolgus CXCR2 on cynomolgus PBMCs / neutrophils [2] | binding to native human CXCR2 on human PBMCs / neutrophils [3] | Fold change in binding relative to BKO-4A8 [4] | other results |
| --- | --- | --- | --- | --- |
| BKO-4A8-mIgG1: BKO-4A8 variable chains on an effector function-reduced mouse IgG1 constant region (SEQ ID NOs: 113 and 114) (antibody, effector function-reduced mouse IgG1 constant region; BKO-4A8-mIgG1 VH; BKO-4A8-mIgG1 VL) heavy: EVQLLESGGGLVQPGGSLRLSCAASGFTFSSSTMSWVRQAPGKGLEWVSAISGRGRNTYYADSVKGRFTISRDNSRNTLYLQMNSLRAEDTAVYYCAIQMGYWGQGILVTVSSAKTTPPSVYPLAPGSAAQTNSMVTLGCLVKGYFPEPVTVTWNSGSLSSGVHTFPAVLQSDLYTLSSSVTVPSSPRPSETVTCNVAHPASSTKVDKKIVPRDCGCKPCICTVPEVSSVFIFPPKPKDVLTITLTPKVTCVVVAISKDDPEVQFSWFVDDVEVHTAQTQPREEQFNSTFRSVSELPIMHQDWLNGKEFKCRVNSAAFPAPIEKTISKTKGRPKAPQVYTIPPPKEQMAKDKVSLTCMITDFFPEDITVEWQWNGQPAENYKNTQPIMNTNGSYFVYSKLNVQKSNWEAGNTFTCSVLHEGLHNHHTEKSLSHSPG light: QSALTQPPSASGSPGQSVTISCIGTSSDVGGYNYVSWYQQHPDKAPKLMIYEVNKRPSGVPDRFSGSKSGNTASLTVSGLQAEDEADYYCSSYAGNNNFGVFGGGTKLTVLGQPKSSPSVTLFPPSSEELETNKATLVCTITDFYPGVVTVDWKVDGTPVTQGMETTQPSKQSNNKYMASSYLTLTARAWERHSSYSCQVTHEGHTVEKSLSRADCS | – | – | – | goblet cell hyperplasia ([1]; p=0.0052): reduced goblet cell hyperplasia; reduction in BAL eosinophil counts ([1]; p=0.017): > 60%; reduction in BAL neutrophil counts ([1]; p=0.028): > 60% |
| BKO-8G3_b: recombinant, VH SEQ ID NO: 41, VL SEQ ID NO: 42 (antibody, V domains shown, BKO_8G3_H4_D04_VH; BKO_8G3_L1_G01_VL) VH: EVQLLESGGGLVQPGGSLRLSCAASGFTFSSYAMSWVRQAPGKGLEWVSAITGSGGSTYYADSVKGRFTISRDKSKNTLYLQMNSLRAEDTAVYYCAIRLGYWGQGSLVTVSS VL: QSALTQPPSASGSPGQSVTISCTGTSSDVGGYNYVSWYQQHPGKVPKLVIYEVSKRPSGVPDRFSGSKSGNTASLTVSGLQAEDEADYYCSSYAGSNNFGVFGGGTKLTVL | high binding activity | high binding activity | – | – |
| V97K: BKO-4A8 point variant, VL SEQ ID NO: 97 (antibody, V domains shown, VH not cited; 4A8 VL V97K) VL: QSALTQPPSASGSPGQSVTISCIGTSSDVGGYNYVSWYQQHPDKAPKLMIYEVNKRPSGVPDRFSGSKSGNTASLTVSGLQAEDEADYYCSSYAGNNNFGKFGGGTKLTVL | – | – | 1.0 | – |
| V97A: BKO-4A8 point variant, VL SEQ ID NO: 96 (antibody, V domains shown, VH not cited; 4A8 VL V97A) VL: QSALTQPPSASGSPGQSVTISCIGTSSDVGGYNYVSWYQQHPDKAPKLMIYEVNKRPSGVPDRFSGSKSGNTASLTVSGLQAEDEADYYCSSYAGNNNFGAFGGGTKLTVL | – | – | 1.7 | – |
| BKO-9C3_a: recombinant, VH SEQ ID NO: 49, VL SEQ ID NO: 50 (antibody, V domains shown, BKO_9C3_H8_G08_VH; BKO_9C3_L1_F01_VL) VH: EVQVLESGGGLVQPGGSLRLSCAASGFTFRSYAMSWVRQAPGKGLEWVSAISGSGGSTYYADSVKGRFTISRDKSKNTLYLQMNSLRAEDTAVYYCAIQLGYWGQGTLVTVSS VL: QSALTQPPSASGSPGQSVIISCTGTSSDVGGYNYVSWYQQHPGKVPKLMIYEVSKRPSGVPDRFSGSKSGNTASLTVSGLQAEDEADYYCTSYAGSNNFGVFGGGTKLTVL | above average levels of binding | substantial levels of binding | – | – |
| Y91A: BKO-4A8 point variant, VL SEQ ID NO: 83 (antibody, V domains shown, VH not cited; 4A8 VL Y91A) VL: QSALTQPPSASGSPGQSVTISCIGTSSDVGGYNYVSWYQQHPDKAPKLMIYEVNKRPSGVPDRFSGSKSGNTASLTVSGLQAEDEADYYCSSAAGNNNFGVFGGGTKLTVL | – | – | 1.7 | – |
